In data set [1] the target is T1, NR2F2 (COUP-TFII) (Mus musculus, UniProt P43135 P43135:1-414).
T1 sequence: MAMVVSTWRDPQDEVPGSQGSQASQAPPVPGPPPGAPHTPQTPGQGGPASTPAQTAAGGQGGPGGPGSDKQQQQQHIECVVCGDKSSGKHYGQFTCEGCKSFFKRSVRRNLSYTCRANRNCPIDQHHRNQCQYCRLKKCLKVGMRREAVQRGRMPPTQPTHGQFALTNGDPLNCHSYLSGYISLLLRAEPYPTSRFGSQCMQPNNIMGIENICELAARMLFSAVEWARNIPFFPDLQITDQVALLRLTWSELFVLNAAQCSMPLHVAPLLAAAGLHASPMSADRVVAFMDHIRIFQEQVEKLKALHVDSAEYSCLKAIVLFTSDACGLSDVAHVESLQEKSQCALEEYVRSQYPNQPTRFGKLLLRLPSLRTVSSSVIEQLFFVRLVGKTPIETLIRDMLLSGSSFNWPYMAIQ
The experiment in a line: competition; 20x unlabeled mutant unable to outcompete wild-type probe in EMSA. The following applies: tags: GST (pGEX2TK, E. coli BL21). From the text: (§1) In each case, disruption of the Ets, SoxF or NHR motifs led to a significant reduction or complete loss of GFP expression in CHT ECs (see e.g., FIG. 3F). In control constructs where mutations were targeted to intervening sequences between the Ets, SoxF and NHR motifs, GFP expression was unperturbed (see e.g., FIG. 3F). Studies of arterial-venous specification in zebrafish have shown that the NHR Nr2f2, also known as COUP-TFII, promotes venous endothelial cell fate (see e.g., Aranguren et al. Transcription factor COUP-TFII is indispensable for venous and lymphatic development in zebrafish and Xenopus laevis. Biochemical and biophysical research communications 410, 121-126, 2011). To test whether Nr2f2 could directly bind the enhancer sequences, an in vitro gel electrophoretic mobility shift assay was performed. Incubation of murine NR2F2-GST protein with labeled probe from either the 125 bp mrc1a or 158 bp sele zebrafish enhancers led to DNA:protein complexes that were super-shifted upon addition of an NR2F2 antibody and could be outcompeted by an unlabeled competitor probe (see e.g., FIG. 10A-FIG. 10E).
(§2) The Nr2f2 fragment was cloned into the pGEX2TK™ vector to generate GST-tagged Nr2f2 and fidelity was verified by sequencing. The pGEX2TK-Nr2f2 protein plasmid was transformed into E. coli BL21 competent cells. Proteins were expressed and purified, and purified proteins were quantified against BSA. EMSAs were performed. Probes were generated by annealing 100 pmol of sense and antisense oligonucleotides, and 1-2 pmol of probe was used in each reaction. Gel shift reactions were conducted at 4° C. in 20% glycerol, 20 mM Tris (pH 8.0), 10 mM KCl, 1 mM DTT, 12.5 ng poly dI/C, 6.25 pmol of random, single-stranded oligonucleotides, BSA and the probe in the amount specified above. Samples involving the Nr2f2 protein were loaded on a 6% gel to resolve protein-DNA complexes. In reactions with cold competitors, 20x unlabeled probes were included in the reactions. Anti-NR2F2 antibody (R&D Biosystems™; cat # PP-H7147-00) was at the same amount of the Nr2f2 protein to obtain super-shifts.
Background: In EMSA bound probe runs differently from free probe, usually more slowly.

Data set [2] addresses T1, NR2F2 (COUP-TFII). The experiment in a line: EMSA; 4 C, 20 mM Tris pH 8.0, 10 mM KCl, 20% glycerol; super-shifted by anti-NR2F2; outcompeted by unlabeled wild-type probe. The following applies: tags: GST (pGEX2TK, E. coli BL21).
Description: as §1, §2

We go through 6 molecules from patent US20210079343, “ENDOTHELIAL CELL FACTORS AND METHODS THEREOF” (THE CHILDREN'S MEDICAL CENTER CORPORATION, published 2021).

Changes are numbered by the printed parent chain.

B1: mrc1a site 1 mutation (dsDNA)
DNA 1: TTTAATTAGCAGATTTAATTTCATTTCCTTTTTG
DNA 2: CAAAAAGGAAATGAAATTAAATCTGCTAATTAAA
As for B1, the binding result in data set [1] is “no binding”.

B2: mrc1a site 2 wild-type (dsDNA)
DNA 1: TTCATTTCCTTTTTGCTGAGCTTTATTTTC
DNA 2: GAAAATAAAGCTCAGCAAAAAGGAAATGAA
On to B2, for which, in data set [2], the binding result is given as “binds”.

B3: mrc1a site 2 mutation (dsDNA)
DNA 1: TTCATTTCCTTTTTGCATTAATTTATTTTC
DNA 2: GAAAATAAATTAATGCAAAAAGGAAATGAA
Turning to B3, the binding result in data set [1] is listed as “no binding”.

B4: mrc1a site 1 wild-type (dsDNA)
DNA 1: TTTATGAAGCTTGTACCTTTCATTTCCTTTTTG
DNA 2: CAAAAAGGAAATGAAAGGTACAAGCTTCATAAA
For B4, in data set [2], the binding result is “binds”.

B5: sele wild-type (dsDNA)
DNA 1: GTAATGCCCCCTGTGACCCATATTGTCTCGCTCTTTCCTTTATA
DNA 2: TATAAAGGAAAGAGCGAGACAATATGGGTCACAGGGGGCATTAC
As to B5, the binding result in data set [2] is reported as “binds”.

B6: sele mutation (dsDNA)
DNA 1: B5 DNA 1 with T14A, G15T, A16T, C17A, C18A
DNA 2: B5 DNA 2 with G27T, G28T, T29A, C30A, A31T
In the case of B6, the binding result in data set [1] is given as “no binding”.
